From PMC11149935, “SAFB regulates hippocampal stem cell fate by targeting Drosha to destabilize Nfib mRNA” (eLife, 2024)

Target: T1, Drosha (endogenous, N2A cells) (mouse (endogenous in N2A), UniProt Q5HZJ0 1-1373)
T1 construct: Drosha, endogenous protein of N2A neuroblastoma cells (ATCC CCL-131); source: endogenous, N2A lysate
T1 sequence (looked up): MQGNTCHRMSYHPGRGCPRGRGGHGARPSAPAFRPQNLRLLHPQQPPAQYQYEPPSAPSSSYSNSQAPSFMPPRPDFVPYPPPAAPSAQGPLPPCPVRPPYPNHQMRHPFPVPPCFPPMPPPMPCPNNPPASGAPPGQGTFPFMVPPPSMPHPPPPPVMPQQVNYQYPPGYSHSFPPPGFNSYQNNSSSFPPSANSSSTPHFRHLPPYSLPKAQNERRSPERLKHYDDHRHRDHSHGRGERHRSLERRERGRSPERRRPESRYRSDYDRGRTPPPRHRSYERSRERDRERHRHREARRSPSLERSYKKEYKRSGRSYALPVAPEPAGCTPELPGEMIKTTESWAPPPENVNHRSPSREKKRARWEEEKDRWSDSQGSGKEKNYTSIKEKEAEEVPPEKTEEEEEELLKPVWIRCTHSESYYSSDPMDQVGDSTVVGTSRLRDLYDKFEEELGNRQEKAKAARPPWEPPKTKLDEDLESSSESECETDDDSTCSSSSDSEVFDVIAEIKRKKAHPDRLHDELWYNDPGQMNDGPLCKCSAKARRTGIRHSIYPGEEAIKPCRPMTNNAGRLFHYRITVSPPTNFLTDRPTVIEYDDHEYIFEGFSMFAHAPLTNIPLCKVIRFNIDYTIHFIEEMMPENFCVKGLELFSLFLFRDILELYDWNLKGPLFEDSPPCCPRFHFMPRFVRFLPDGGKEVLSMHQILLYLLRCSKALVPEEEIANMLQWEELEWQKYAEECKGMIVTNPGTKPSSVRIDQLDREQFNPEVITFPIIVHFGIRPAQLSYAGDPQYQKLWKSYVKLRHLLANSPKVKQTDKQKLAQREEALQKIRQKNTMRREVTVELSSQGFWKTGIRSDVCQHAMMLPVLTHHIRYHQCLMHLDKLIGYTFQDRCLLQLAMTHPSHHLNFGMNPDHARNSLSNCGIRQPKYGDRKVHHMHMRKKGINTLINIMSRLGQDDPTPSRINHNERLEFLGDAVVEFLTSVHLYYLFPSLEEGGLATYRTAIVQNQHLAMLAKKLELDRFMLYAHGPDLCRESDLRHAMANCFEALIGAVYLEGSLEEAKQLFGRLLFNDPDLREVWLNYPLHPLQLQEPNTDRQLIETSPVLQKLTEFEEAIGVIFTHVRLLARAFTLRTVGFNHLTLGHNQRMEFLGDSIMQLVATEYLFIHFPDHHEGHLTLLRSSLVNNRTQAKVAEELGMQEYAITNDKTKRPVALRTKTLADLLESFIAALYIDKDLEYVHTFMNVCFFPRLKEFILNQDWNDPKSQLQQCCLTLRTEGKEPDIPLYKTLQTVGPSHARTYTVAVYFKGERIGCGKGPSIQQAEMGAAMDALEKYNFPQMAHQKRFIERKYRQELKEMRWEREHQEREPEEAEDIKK
Assay: co-IP; N2A cells transfected with SAFB-HA or SAFB-ΔRE-HA, 48 hr; IP of endogenous Drosha, anti-HA immunoblot, densitometry relative to Drosha; IgG isotype control IP
Conditions: partners not purified

B1: SAFB-ΔRE-HA (natural protein, UniProt Q15424 1-915, looked up)
chain: MAETLSGLGDSGAAGAAALSSASSETGTRRLSDLRVIDLRAELRKRNVDSSGNKSVLMERLKKAIEDEGGNPDEIEITSEGNKKTSKRSSKGRKPEEEGVEDNGLEENSGDGQEDVETSLENLQDIDIMDISVLDEAEIDNGSVADCVEDDDADNLQESLSDSRELVEGEMKELPEQLQEHAIEDKETINNLDTSSSDFTILQEIEEPSLEPENEKILDILGETCKSEPVKEESSELEQPFAQDTSSVGPDRKLAEEEDLFDSAHPEEGDLDLASESTAHAQSSKADSLLAVVKREPAEQPGDGERTDCEPVGLEPAVEQSSAASELAEASSEELAEAPTEAPSPEARDSKEDGRKFDFDACNEVPPAPKESSTSEGADQKMSSPEDDSDTKRLSKEEKGRSSCGRNFWVSGLSSTTRATDLKNLFSKYGKVVGAKVVTNARSPGARCYGFVTMSTAEEATKCINHLHKTELHGKMISVEKAKNEPVGKKTSDKRDSDGKKEKSSNSDRSTNLKRDDKCDRKDDAKKGDDGSGEKSKDQDDQKPGPSERSRAVRRPYDLDRRDDAYWPEAKRAALDERYHSDFNRQDRFHDFDHRDRGRYPDHSVDRREGSRSMMGEREGQHYPERHGGPERHGRDSRDGWGGYGSDKRMSEGRGLPPPPRRDWGDHGRREDDRSWQGTADGGMMDRDHKRWQGGERSMSGHSGPGHMMNRGGMSGRGSFAPGGASRGHPIPHGGMQGGFGGQSRGSRPSDARFTRRY
notes: SAFB lacking the RE-rich region (amino acids 552-708), made from CAG::Safb-HA-IRES-Cfp by Q5 site-directed mutagenesis; Parent is m26; Also expressed in DG NSCs for the reporter assay; also called CAG::Safb-ΔRE-HA-IRES-Cfp; source: N2A, transfected (TransFectin), in lysate
With B1 the “fold reduction in binding against SAFB WT” value was 5.7 fold.
